Target: Taq DNA polymerase (UniProt P19821 P19821:1-832)
Experiment: BLI; 50 mM NaCl, 1.5 mM MgCl2, 50 mM Tris-HCl pH 8.5; immobilized biotin-aptamer; sensorgram only
Details: tags: GoTaq (Promega); label: biotin on aptamer for BLI; 20 bp duplex with 20 nt inverter overhang, conserved region CAATGTACAGTATTG

Chain of Taq DNA polymerase (P19821 whole entry, one chain of several): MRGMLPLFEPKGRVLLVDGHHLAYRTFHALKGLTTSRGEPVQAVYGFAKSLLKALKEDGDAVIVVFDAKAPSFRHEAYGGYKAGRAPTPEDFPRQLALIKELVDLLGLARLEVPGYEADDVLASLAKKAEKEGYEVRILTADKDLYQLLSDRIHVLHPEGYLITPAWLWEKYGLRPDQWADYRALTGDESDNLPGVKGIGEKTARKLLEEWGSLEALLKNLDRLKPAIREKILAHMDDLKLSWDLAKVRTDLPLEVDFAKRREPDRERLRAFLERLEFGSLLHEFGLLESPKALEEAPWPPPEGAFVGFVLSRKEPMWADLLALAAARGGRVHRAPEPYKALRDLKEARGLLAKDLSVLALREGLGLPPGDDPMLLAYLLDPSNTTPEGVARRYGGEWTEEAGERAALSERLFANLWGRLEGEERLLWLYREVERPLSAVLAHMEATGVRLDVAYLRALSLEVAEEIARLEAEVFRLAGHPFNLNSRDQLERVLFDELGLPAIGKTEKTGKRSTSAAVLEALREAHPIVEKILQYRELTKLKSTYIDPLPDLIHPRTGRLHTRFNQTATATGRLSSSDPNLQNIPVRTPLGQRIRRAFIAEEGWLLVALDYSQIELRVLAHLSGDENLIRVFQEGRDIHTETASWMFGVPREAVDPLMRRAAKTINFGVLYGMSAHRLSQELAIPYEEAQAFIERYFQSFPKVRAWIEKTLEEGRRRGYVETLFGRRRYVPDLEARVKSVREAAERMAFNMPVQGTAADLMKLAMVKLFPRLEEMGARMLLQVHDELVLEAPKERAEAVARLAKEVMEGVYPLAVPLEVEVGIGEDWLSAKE

B1: HPV16 L2 aptamer/inverter recognition nanostructure (structured_DNA)
DNA 1: AAGTATCTGTAATAAAGTCACAATGTACAGTATTG
DNA 2: TGACTTTATTACAGATACTTCTACAACCCCGGTACCATCT
binding result: binds

Source: patent US20210130870, “VISUAL AND MODULAR DETECTION OF NUCLEIC ACIDS WITH ENZYME-ASSISTED NANOTECHNOLOGY” (National University of Singapore, published 2021)
